Measured values taken from PMC5779224 (2017).

B1: AnkB_AI-a peptide (aa 1623–1635) [human] / AnkB_MBD (AnkB ANK repeats only, aa 28–827) [human] (parent complex)
chain 1: HPPIVSEEDISVG
chain 2: KSDSNASFLRAARAGNLDKVVEYLKGGIDINTCNQNGLNALHLAAKEGHVGLVQELLGRGSSVDSATKKGNTALHIASLAGQAEVVKVLVKEGANINAQSQNGFTPLYMAAQENHIDVVKYLLENGANQSTATEDGFTPLAVALQQGHNQAVAILLENDTKGKVRLPALHIAARKDDTKSAALLLQNDHNADVQSKMMVNRTTESGFTPLHIAAHYGNVNVATLLLNRGAAVDFTARNGITPLHVASKRGNTNMVKLLLDRGGQIDAKTRDGLTPLHCAARSGHDQVVELLLERGAPLLARTKNGLSPLHMAAQGDHVECVKHLLQHKAPVDDVTLDYLTALHVAAHCGHYRVTKLLLDKRANPNARALNGFTPLHIACKKNRIKVMELLVKYGASIQAITESGLTPIHVAAFMGHLNIVLLLLQNGASPDVTNIRGETALHMAARAGQVEVVRCLLRNGALVDARAREEQTPLHIASRLGKTEIVQLLLQHMAHPDAATTNGYTPLHISAREGQVDVASVLLEAGAAHSLATKKGFTPLHVAAKYGSLDVAKLLLQRRAAADSAGKNGLTPLHVAAHYDNQKVALLLLEKGASPHATAKNGYTPLHIAAKKNQMQIASTLLNYGAETNIVTKQGVTPLHLASQEGHTDMVTLLLDKGANIHMSTKSGLTSLHLAAQEDKVNVADILTKHGADQDAHTKLGYTPLIVACHYGNVKMVNFLLKQGANVNAKTKNGYTPLHQAAQQGHTHIINVLLQHGAKPNATTANGNTALAIAKRLGYISVVDTLKVVTEEVTTTTTTI
B2: AnkB_AI-c (aa 828–852) [human] / AnkB_MBD (AnkB ANK repeats only, aa 28–827) [human] (parent complex)
chain 1: TEKHKLNVPETMTEVLDVSDEEGDD
chain 2: B1 chain 2
B3: AnkG linker ΔAI-c (aa 861–920) [rat] / AnkG 38–855 (AnkG MBD-AI-c protein; MBD + partial AI-c) [rat] (parent complex)
chain 1: KASAPEKLSDGEYISDGEEGEDAITGDTDKYLGPQDLKELGDDSLPAEGYVGFSLGARSA
chain 2: KSDANASYLRAARAGHLEKALDYIKNGVDVNICNQNGLNALHLASKEGHVEVVSELLQREANVDAATKKGNTALHIASLAGQAEVVKVLVTNGANVNAQSQNGFTPLYMAAQENHLEVVRFLLDNGASQSLATEDGFTPLAVALQQGHDQVVSLLLENDTKGKVRLPALHIAARKDDTKAAALLLQNDTNADIESKMVVNRATESGFTPLHIAAHYGNINVATLLLNRAAAVDFTARNDITPLHVASKRGNANMVKLLLDRGAKIDAKTRDGLTPLHCGARSGHEQVVEMLLDRAAPILSKTKNGLSPLHMATQGDHLNCVQLLLQHNVPVDDVTNDYLTALHVAAHCGHYKVAKVLLDKKANPNAKALNGFTPLHIACKKNRIRVMELLLKHGASIQAVTESGLTPIHVAAFMGHVNIVSQLMHHGASPNTTNVRGETALHMAARSGQAEVVRYLVQDGAQVEAKAKDDQTPLHISARLGKADIVQQLLQQGASPNAATTSGYTPLHLSAREGHEDVAAFLLDHGASLSITTKKGFTPLHVAAKYGKLEVASLLLQKSASPDAAGKSGLTPLHVAAHYDNQKVALLLLDQGASPHAAAKNGYTPLHIAAKKNQMDIATSLLEYGADANAVTRQGIASVHLAAQEGHVDMVSLLLSRNANVNLSNKSGLTPLHLAAQEDRVNVAEVLVNQGAHVDAQTKMGYTPLHVGCHYGNIKIVNFLLQHSAKVNAKTKNGYTPLHQAAQQGHTHIINVLLQNNASPNELTVNGNTALAIARRLGYISVVDTLKVVTEEIMTTTTITEKHKMNVPETMNEVLDMS
B4: AnkB_AI-b (aa 865–896) [human] / AnkB 28–847 (MBD + partial AI-c) [human] (parent complex)
chain 1: EDLKELGDDSLPSSQFLDGMNYLRYSLEGGRS
chain 2: KSDSNASFLRAARAGNLDKVVEYLKGGIDINTCNQNGLNALHLAAKEGHVGLVQELLGRGSSVDSATKKGNTALHIASLAGQAEVVKVLVKEGANINAQSQNGFTPLYMAAQENHIDVVKYLLENGANQSTATEDGFTPLAVALQQGHNQAVAILLENDTKGKVRLPALHIAARKDDTKSAALLLQNDHNADVQSKMMVNRTTESGFTPLHIAAHYGNVNVATLLLNRGAAVDFTARNGITPLHVASKRGNTNMVKLLLDRGGQIDAKTRDGLTPLHCAARSGHDQVVELLLERGAPLLARTKNGLSPLHMAAQGDHVECVKHLLQHKAPVDDVTLDYLTALHVAAHCGHYRVTKLLLDKRANPNARALNGFTPLHIACKKNRIKVMELLVKYGASIQAITESGLTPIHVAAFMGHLNIVLLLLQNGASPDVTNIRGETALHMAARAGQVEVVRCLLRNGALVDARAREEQTPLHIASRLGKTEIVQLLLQHMAHPDAATTNGYTPLHISAREGQVDVASVLLEAGAAHSLATKKGFTPLHVAAKYGSLDVAKLLLQRRAAADSAGKNGLTPLHVAAHYDNQKVALLLLEKGASPHATAKNGYTPLHIAAKKNQMQIASTLLNYGAETNIVTKQGVTPLHLASQEGHTDMVTLLLDKGANIHMSTKSGLTSLHLAAQEDKVNVADILTKHGADQDAHTKLGYTPLIVACHYGNVKMVNFLLKQGANVNAKTKNGYTPLHQAAQQGHTHIINVLLQHGAKPNATTANGNTALAIAKRLGYISVVDTLKVVTEEVTTTTTTITEKHKLNVPETMTEVLDVSD

Variants of: B1
Assay: fluorescence polarisation; parent: 7.3e+03 nM

Q: How did the Kd turn out when chain 2 R10E, chain 2 R13E was run?
A: Its Kd is 43.8 µM.

Variants of: B2
Assay: ITC; parent: 360 nM

Q: How did the Kd turn out when chain 1 TEKHKLKVPETMTEVLDVSDEEGDD [chain 1 N7K] was run?
A: Its Kd is 2.7 µM.

Q: chain 1 TEKHKLNVPETMTEVQDVSDEEGDD [chain 1 L16Q] was tested. Which Kd did it give?
A: The Kd was 3.9 µM.

Q: How did the Kd turn out when chain 1 TEKHKLNVPETQTEVLDVSDEEGDD [chain 1 M12Q] was run?
A: The Kd was 4.4 µM.

Variants of: B2
Assay: ITC; parent: 360 nM
Remark: another data set of the same source

Q: chain 2 N568A was tested. Which Kd did it give?
A: Its Kd is 2.4 µM.

Variants of: B3
Assay: ITC; parent: 1.6e+03 nM

Q: chain 2 I240Q, chain 2 L273Q was tested. Which Kd did it give?
A: Its Kd is 3.9 µM.

Q: chain 2 F104Q, chain 2 F137Q was tested. Which Kd did it give?
A: Its Kd is 2.6 µM.

Variants of: B4
Assay: ITC; parent: 2.7e+03 nM

Q: For chain 1 EDLKELGDDSLPSSQFLDGMNALRYSLEGGRS [chain 1 Y22A], which Kd is on record?
A: Its Kd is 16 µM.

Variants of: B4
Assay: ITC; parent: 2.7e+03 nM
Remark: another data set of the same source

Q: For chain 2 I240Q, chain 2 L273Q, which Kd is on record?
A: Its Kd is 8.5 µM.
